A short description of the series: soluble on expression in E. coli; label from the status in PepcDB or PDB records.
On to “MAAKRPPASTLKWCQQEMGPICEGIGMVVRSQIGYDGRRIEKQIRRKALQTVVMGGQDVDPLKEPNKTNAPLLSPTLPSTNEALQRARVVAAGIETFAKLMSQGTYPGSAGFTVSETGERKYMKQTSPVQSNIVANLMATADKLSKGVISLAPFPLPTITKLGTWVIANPTAQLPIPPQLKSAIPAIGQIETLIQSILGVQGPVSSVSRAPRKLKLEGVTDQVVLEPETIHATVDVEPIDKTLTKEEAEFLIKAARSVDDDNAETAIFGTQKAKPKVYRPELPKNFEVNLEMGNVHTLTRSNESSVPATRIGRLATFGQLAFGLLGGATAEVTRRTFGIGKRLQEEGIPKNPFLSEANADRIVATLCRVRGAALKLGQMLSIQDSSTVPPALLQIFERVRQSADFMPIKQVHRQMKDAFGDDWREKFEHFDDKPFACASIGQVHKAVLKDGRNVAVKVQYPGVAEGIDSDIDNLVSVLSVGGIFPKGMFLDAFVGVARRELKQECDYEREARAMKKFRELIADWQDVYVPEVIDELSSSRVLTTELVYGKPVDACVEEPQVVRDYIAGKFIELCLKEIFLWRFMQTDPNWSNFFLGKHPKTGEPRLVLLDFGASRAYGKKFVDIYMNIIKSAYDGDKKKIIEYSREIGFLTGYETSVMEDAHVESVMIMGETLASNHPYNFANQDVTMRIQKLIPVMLEHRLTSPPEEIYSLHRKLSGCYLLAAKLKATVSCGGLFHEIHENYVFGEDGIDINID”, for which the “soluble on expression in E. coli” value is reported as “not soluble”.

Consider “MAAKWEKLEGNVGVLTIEVDAKEVNNSIDAAFKKVVKTINVPGFRKGKMPRPLFEQRFGIESLYQDALDIILPKAYGEAIDEAGIFPVAHPEIDIEKFEKNANLIFTAKVTVKPEVKLGEYKGLAVEKVETTVTDEDVENELKSLQERQAELVVKEEGTVENGDTAVIDFEGFVDGEAFEGGKGENYSLAIGSGTFIPGFEEQVIGLKSGESKDVEVSFPEEYHAAELAGKPATFKVTVHEIKTKELPELNDEFAKEADEAVATLDELKAKLRTNLEEGKKHEAEHKVRDEVVELAAANAEIDIPEAMIDTELDRMVREFEQRLSQQGMNLELYYQFTGTDADKLKEQMKEDAQKRVRINLVLEAIIEAENIEVTEEEVTAEVEKMAEMYGMPVDAIKQALGSVDALAEDLKVRKAVDFLVENAA”, for which the “soluble on expression in E. coli” value is reported as “not soluble”.

For the sequence “MAALIDTGIFFGFYSLKDVHHMDSVAIVVHAVEGKWGRLFVTNHILDETLTLLKYKKLPADKFLEGFVESGVLNIIYTDDEVERKALEVFKARVYEKGFSYTDAISEVVAEELKLKLISYDSRFSLPTIGRDYWKSLDESERKRISAILREKGIDG”, the “soluble on expression in E. coli” value was “soluble”.

Regarding “MAALMTPGTGAPPAPGDFSGEGSQGLPDPSPEPKQLPELIRMKRDGGRLSEADIRGFVAAVVNGSAQGAQIGAMLMAIRLRGMDLEETSVLTQALAQSGQQLEWPEAWRQQLVDKHSTGGVGDKVSLVLAPALAACGCKVPMISGRGLGHTGGTLDKLESIPGFNVIQSPEQMQVLLDQAGCCIVGQSEQLVPADGILYAARDVTATVDSLPLITASILSKKLVEGLSALVVDVKFGAGAVFPNQEQARELAKTLVGVGASLGLRVAAALTAMDKPLGRCVGHALEVEEALLCMDGAGPPDLRDLVTTLGGALLWLSGHAGTQAQGAARVAAALDDGSALGRFERMLAAQGVDPGLARALCSGSPAERRQLLPRAREQEELLAPADGTVELVRALPLALVLHELGAGRSRAGEPLRLGVGAELLVDVGQRLRRGTPWLRVHRDGPALSGPQSRALQEALVLSDRAPFAAPLPFAELVLPPQQ”, the “soluble on expression in E. coli” value is recorded as “soluble”.

“MAALRYRRFLKLCEEWPVDETKRGRDLGAYLRQRVAQAFREGENTQIAEPEACDQMYESLARLHSNYYKHKYPRPRDTSFSGLSVEEYKLILSTDTLEEFQEMNKSMWKKLQEKFAPTRPEEKHKAWTRVLSRPRT”: the “soluble on expression in E. coli” value is listed as “soluble”.

For “MAAQLDPSSEFAALVKQLQREPDNPGLKQAVVKRLPEMQLLAKTNSLALFRLAQVYSPSSSQHKQMILQSAAQGCTNAMLSACEILLKSGAANDLITAAHYMRLIQSSKDSYIIGLGKKLLEKYPDFAEELKSKEVPYQSTLRFFGVQSESNKENEEKIINRPTV”, the “soluble on expression in E. coli” value is reported as “not soluble”.

Consider “MAASAAATAAASAATAASAASGSPGSGEGSAGGEKRPAASSAAAASAAASSPAGGGGEAQELLEHCGVCRERLRPERDPRLLPCLHSACSACLGPATPAAANNSGDGGSAGDGAMVDCPVCKQQCYSKDIVENYFMRDSGSKASSDSQDANQCCTSCEDNAPATSYCVECSEPLCETCVEAHQRVKYTKDHTVRSTGPAKTRDGERTVYCNVHKHEPLVLFCESCDTLTCRDCQLNAHKDHQYQFLEDAVRNQRKLLASLVKRLGDKHATLQKNTKEVRSSIRQVSDVQKRVQVDVKMAILQIMKELNKRGRVLVNDAQKVTEGQQERLERQHWTMTKIQKHQEHILRFASWALESDNNTALLLSKKLIYFQLHRALKMIVDPVEPHGEMKFQWDLNAWTKSAEAFGKIVAERPGTNSTGPGPMAPPRAPGPLSKQGSGSSQPMEVQEGYGFGSDDPYSSAEPHVSGMKRSRSGEGEVSGLLRKVPRVSLERLDLDLTSDSQPPVFKVFPGSTTEDYNLIVIERGAAAAAAGQAGTVPPGAPGAPPLPGMAIVKEEETEAAIGAPPAAPEGPETKPVLMPLTEGPGAEGPRLASPSGSTSSGLEVVAPEVTSAPVSGPGILDDSATICRVCQKPGDLVMCNQCEFCFHLDCHLPALQDVPGEEWSCSLCHVLPDLKEEDGSLSLDGADSTGVVAKLSPANQRKCERVLLALFCHEPCRPLHQLATDSTFSMEQPGGTLDLTLIRARLQEKLSPPYSSPQEFAQDVGRMFKQFNKLTEDKADVQSIIGLQRFFETRMNDAFGDTKFSAVLVEPPPLNLPSAGLSSQELSGPGDGP”, for which the “soluble on expression in E. coli” value is listed as “soluble”.

For the sequence “MACRQEPQPQGPPPAAGAVASYDYLVIGGGSGGLASARRAAELGARAAVVESHKLGGTCVNVGCVPKKVMWNTAVHSEFMHDHADYGFPSCEGKFNWRVIKEKRDAYVSRLNAIYQNNLTKSHIEIIRGHAAFTSDPKPTIEVSGKKYTAPHILIATGGMPSTPHESQIPGASLGITSDGFFQLEELPGRSVIVGAGYIAVEMAGILSALGSKTSLMIRHDKVLRSFDSMISTNCTEELENAGVEVLKFSQVKEVKKTLSGLEVSMVTAVPGRLPVMTMIPDVDCLLWAIGRVPNTKDLSLNKLGIQTDDKGHIIVDEFQNTNVKGIYAVGDVCGKALLTPVAIAAGRKLAHRLFEYKEDSKLDYNNIPTVVFSHPPIGTVGLTEDEAIHKYGIENVKTYSTSFTPMYHAVTKRKTKCVMKMVCANKEEKVVGIHMQGLGCDEMLQGFAVAVKMGATKADFDNTVAIHPTSSEELVTLR”, the “soluble on expression in E. coli” value is “soluble”.

With “MADDVDNDDKLEKPVDLIWGCELNEQNKTFEFKVEDDEEKCEHQLALRTVCLGDKAKDEFHIVEIVDQEEGAEKVVPIATLKPSILPMATMVGIELDPPVTFRLKAGSGPLYISGQHVAM”, the “soluble on expression in E. coli” value is reported as “soluble”.

On to “MADIAILVAEEYERRMKHTTVGSRSSPVEFDWWKIIPAKMTIAFDKMKIESLKKNFEAKSEFALAISHGFFSA”, for which the “soluble on expression in E. coli” value is “not soluble”.

Consider “MADKHLIREKVLRNLNTIDKVEHRERSIKLAEKLFLLPEWNQAKVIGITLARHPEIETETIILQAKKEGKTVLIPKTFYPSRKMEFKKMDSSHPLTKTKFGILEPHELAETVDKDAIDLLIVPGVVFNKAHFRIGFGGGFYDRFLADFKGETVSLCLYEQQIEFTPESHDKPVSILIEG”, for which the “soluble on expression in E. coli” value is recorded as “soluble”.

“MADKKLDTQLVNAGRSKKYTLGAVNSVIQRASSLVFDSVEAKKHATRNRANGELFYGRRGTLTHFSLQQAMCELEGGAGCVLFPCGAAAVANSILAFIEQGDHVLMTNTAYEPSQDFCSKILSKLGVTTSWFDPLIGADIVKHLQPNTKIVFLESPGSITMEVHDVPAIVAAVRSVVPDAIIMIDNTWAAGVLFKALDFGIDVSIQAATKYLVGHSDAMIGTAVCNARCWEQLRENAYLMGQMVDADTAYITSRGLRTLGVRLRQHHESSLKVAEWLAEHPQVARVNHPALPGSKGHEFWKRDFTGSSGLFSFVLKKKLNNEELANYLDNFSLFSMAYSWGGYESLILANQPEHIAAIRPQGEIDFSGTLIRLHIGLEDVDDLIADLDAGFARIV”: the “soluble on expression in E. coli” value is “soluble”.

Regarding “MADPGSVGHVFRRAFSWLPAQFASQSDAPVGAPRQFRSTEHLSIEAIAAFVDGELRMNAHLRAAHHLSLCAQCAAEVDDQSRARAALRDSHPIRIPSTLLGLLSEIPRCPPEGPSKGSSGGSSQGPPDGAAAGFGDRFADGDGGNRGRQSRVRR”, the “soluble on expression in E. coli” value is “soluble”.

Consider “MADYWKDVLPVDPYVVKSRSMLQDIDRQIITQLYQPLIGPVAFSLYMTLWGELEQNRLWGGESTHRQLMGMTQSNLKTIHQEQGKLEGIGLLKVYMKESERQERLFIYELLPPLRPNEFFEDGMLNVFLYNRVGKTKYQQLKQFFTHPAISEDAKDITRPFNHAFESLQPSEWKLTSDMEETVRLAEGSEYTSVGQSPSYTITEDVFDFDLFLAGLSETMIPRKAMTQQVRDTIKKLSYLYGIDPLQMQNVVMSAIDERDVITTEALRKAASDWYQIERNGQLPDLVEKTQPVHLREGEQPAEEDSLDGKLIALLEAISPKKLLQDIADGTEPSKADLKIIEEIMFEQKLEPGVTNVLIYYVMLKTDMKLSKNYIQKIASHWARKKVKTVREAMKLAIEENRQYLEWAEGKTKSSKRNQKVIREEKLPDWMTEKETASDSESGQQKLHPQDLEEQKKKMMEEMQKLKKYSAY”, for which the “soluble on expression in E. coli” value was “not soluble”.

For the sequence “MAEATDVVLVGGGIMSATLGVLLKELEPSWEITLIERLEDVALESSNAWNNAGTGHSALCELNYAPLGANGIIDPARALNIAEQFHVSRQFWATLVAEGKLEDNSFINAVPHMSLVMNEDHCSYLQKRYDAFKTQKLFENMEFSTDRNKISDWAPLMMRGRDENQPVAANYSAEGTDVDFGRLTRQMVKYLQGKGVKTEFNRHVEDIKRESDGAWVLKTADTRNPDGQLTLRTRFLFLGAGGGALTLLQKSGIPEGKGYGGFPVSGLFFRNSNPETAEQHNAKVYGQASVGAPPMSVPHLDTRNVDGKRHLMFGPYAGFRSNFLKQGSLMDLPLSIHMDNLYPMLCAGWANMPLTKYLLGELRKTKEERFASLLEYYPEANPDDWELITAGQRVQIIKKDSEKGGVLQFGTEIVAHADGSLAALLGASPGASTAVPLMIRLMHQCFPERAPSWEDRLKELVPGYGIKLNENPERADEIIAYTAKVLDI”, the “soluble on expression in E. coli” value is “not soluble”.

Consider “MAEDYKLIDNEEKHRYEFQIDDKIAKIDYIKSNNGEIYLVHTEVPASLGGRGVGSQLAEKTLADIERQGLRLVPLCPFVAGYIHKHPEWKRIVMRGIHIK”, for which the “soluble on expression in E. coli” value is recorded as “not soluble”.

For “MAEEAVDARGEGARFIEKVKSICGNTSRILYKYDEPTDPRYGYLPHERPLDVYLRYGMIVVDKPPGPTSHEVVAWIKRMLGVSRAGHGGTLEPLPAPRGLRGGDILK”, the “soluble on expression in E. coli” value is “soluble”.

For the sequence “MAEETDVIVVGAGLSGLVAATEIADAGKRVIVVDQEGEQSVGGQAFWSFGGLFLVNSPEQRRLGIKDSFDLAMQDWLGTAGFDRDEDHWPRKWAEAYVAFAAGEKRDWLHAMGHRILPVVGWAERGGYDAMGHGNSVPRFHVTWGTGPGIVEPFERRAREAMKSGRLIFKFRHRVDALSITNGTVDGVSGAVLAPDNVERGKSSSRNVVGEFALKAQAVIVASGGIGGNHELVRQNWPKRLGEPPKFMISGVPEHVDGRMIGITEQAGARLINRDRMWHYVEGIQNWSPIWPRHGIRILPGPSSMWFDATGTRLPAPLFPGSDTLGQLKYIMSTGHDYSWFILTQSIIKKEFALSGSEQNPDLTGKSWRMTLRRATNKGAPAPVEAFKSHGVDFIVRDKIDDLVTAMNKLAGSDLLRLEHIKMQIEARDREIANPYVKDAQVMNIHNARRYIGDKLIRTASPHRILDPAHGPLIAVKLNILTRKTLGGFETDLDSRVFGGEGSIIPGLYAVGEAAGFGGGGVHGYRSLEGTFLGGCLFSGRNAGRAAAKAVG”, the “soluble on expression in E. coli” value is “not soluble”.

For the origin of these results see the DeepSol protein solubility set.
